In article PMC2397435 (2008) one finds ratio to parent data, which are given here for 14 variants.

B1: Gal4 DBD-HIV-1 p6 (wild type) [HIV-1 (pNL4-3)] / Gal4 AD-ALIX (868 amino acid-long) [not stated] (parent complex)
chain 1: LQSRPEPTAPPEESFRFGEETTTPSQKQEPIDKELYPLTSLRSLFGSDPSSQ
chain 2: MATFISVQLKKTSEVDLAKPLVKFIQQTYPSGGEEQAQYCRAAEELSKLRRAAVGRPLDKHEGALETLLRYYDQICSIEPKFPFSENQICLTFTWKDAFDKGSLFGGSVKLALASLGYEKSCVLFNCAALASQIAAEQNLDNDEGLKIAAKHYQFASGAFLHIKETVLSALSREPTVDISPDTVGTLSLIMLAQAQEVFFLKATRDKMKDAIIAKLANQAADYFGDAFKQCQYKDTLPKEVFPVLAAKHCIMQANAEYHQSILAKQQKKFGEEIARLQHAAELIKTVASRYDEYVNVKDFSDKINRALAAAKKDNDFIYHDRVPDLKDLDPIGKATLVKSTPVNVPISQKFTDLFEKMVPVSVQQSLAAYNQRKADLVNRSIAQMREATTLANGVLASLNLPAAIEDVSGDTVPQSILTKSRSVIEQGGIQTVDQLIKELPELLQRNREILDESLRLLDEEEATDNDLRAKFKERWQRTPSNELYKPLRAEGTNFRTVLDKAVQADGQVKECYQSHRDTIVLLCKPEPELNAAIPSANPAKTMQGSEVVNVLKSLLSNLDEVKKEREGLENDLKSVNFDMTSKFLTALAQDGVINEEALSVTELDRVYGGLTTKVQESLKKQEGLLKNIQVSHQEFSKMKQSNNEANLREEVLKNLATAYDNFVELVANLKEGTKFYNELTEILVRFQNKCSDIVFARKTERDELLKDLQQSIAREPSAPSIPTPAYQSSPAGGHAPTPPTPAPRTMPPTKPQPPARPPPPVLPANRAPSATAPSPVGAGTAAPAPSQTPGSAPPPQAQGPPYPTYPGYPGYCQMPMPMGYNPYAYGQYNMPYPPVYHQSPGQAPYPGPQQPSYPFPQPPQQSYYPQQ

The variants in this assay derive from B1. Kind of assay: yeast two-hybrid, liquid β-galactosidase assay; yeast AH109, 30°C, SD/-Leu/-Trp selection medium; triplicate; parent: 1; read off a plot.
Consider chain 1 T39A, for which the ratio to parent is ~1.1.

Regarding chain 1 K33A, the ratio to parent is ~1.

Consider chain 1 P37A, for which the ratio to parent is ~0.3.

As for chain 1 S43A, the ratio to parent is ~0.8.

Turning to chain 1 E34A, the ratio to parent was ~0.35.

Turning to chain 1 I31A, the ratio to parent is ~0.95.

Take chain 1 G46A: the ratio to parent is ~0.95.

Take chain 1 F45A: the ratio to parent was ~1.

In the case of chain 1 R42A, the ratio to parent is ~0.25.

As to chain 1 L41A, the ratio to parent was ~0.15.

As for chain 1 L35A, the ratio to parent is ~0.2.

For the variant chain 1 S40A, the ratio to parent is ~1.

With chain 1 L44A, the ratio to parent is ~0.6.

chain 1 D32A: the ratio to parent was ~0.86.
